Measurements: US20180282410A1 (Hoffmann-La Roche, published 2018)

Tests used:
[1] = target: T1, biotinylated ectodomain of human Robo 4 with C-terminal AcTEV protease site, Avi-tag and 6xHis-tag (human, biotin on the Avi-tag (in vivo biotinylated via co-expression of BirA)); assay: SPR, BioRad ProteOn XPR36, purified Fab, monovalent affinity; human Robo 4; Fab, monovalent affinity
T1 construct: also called biotinylated human Robo 4
T1 chain: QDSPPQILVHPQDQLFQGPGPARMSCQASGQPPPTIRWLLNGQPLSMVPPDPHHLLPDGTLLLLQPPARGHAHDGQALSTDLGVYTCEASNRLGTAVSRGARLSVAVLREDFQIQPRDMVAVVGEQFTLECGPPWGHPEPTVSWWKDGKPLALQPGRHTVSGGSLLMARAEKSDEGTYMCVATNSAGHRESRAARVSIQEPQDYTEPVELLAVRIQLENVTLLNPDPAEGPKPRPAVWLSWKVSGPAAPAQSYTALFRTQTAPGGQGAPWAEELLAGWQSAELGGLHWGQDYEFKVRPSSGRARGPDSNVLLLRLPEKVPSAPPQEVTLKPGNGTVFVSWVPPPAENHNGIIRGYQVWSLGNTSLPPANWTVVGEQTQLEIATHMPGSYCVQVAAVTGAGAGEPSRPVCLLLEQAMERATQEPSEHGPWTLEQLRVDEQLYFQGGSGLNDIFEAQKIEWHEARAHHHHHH

[2] = target: T2, recombinant cynomolgus Robo 4 ECD fused to AcTEV protease recognition site, Avi- and 6xHis-tag (cynomolgus); assay: SPR, BioRad ProteOn XPR36, purified Fab, monovalent affinity; cynomolgus Robo 4; Fab, monovalent affinity
T2 construct: Biotinylated in the avidity assay
T2 chain: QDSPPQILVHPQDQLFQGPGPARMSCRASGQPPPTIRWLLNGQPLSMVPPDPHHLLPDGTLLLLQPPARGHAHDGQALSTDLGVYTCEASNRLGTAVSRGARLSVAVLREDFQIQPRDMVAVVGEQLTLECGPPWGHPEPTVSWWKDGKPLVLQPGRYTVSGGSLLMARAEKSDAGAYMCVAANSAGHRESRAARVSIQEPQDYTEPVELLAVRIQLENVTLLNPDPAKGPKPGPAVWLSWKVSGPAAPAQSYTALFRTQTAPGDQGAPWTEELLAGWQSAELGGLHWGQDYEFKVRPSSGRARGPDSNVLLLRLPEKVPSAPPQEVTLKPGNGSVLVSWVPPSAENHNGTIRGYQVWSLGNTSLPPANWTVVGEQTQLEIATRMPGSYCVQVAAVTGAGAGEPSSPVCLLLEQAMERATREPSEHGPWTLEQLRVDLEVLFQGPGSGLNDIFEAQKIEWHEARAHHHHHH

[3] = target: T3, murine (mu) Robo 4 ECD-PreS-Avi-His (mouse); assay: SPR, BioRad ProteOn XPR36, purified Fab
T3 construct: also called recombinant murine Robo 4; murine Robo 4
T3 chain: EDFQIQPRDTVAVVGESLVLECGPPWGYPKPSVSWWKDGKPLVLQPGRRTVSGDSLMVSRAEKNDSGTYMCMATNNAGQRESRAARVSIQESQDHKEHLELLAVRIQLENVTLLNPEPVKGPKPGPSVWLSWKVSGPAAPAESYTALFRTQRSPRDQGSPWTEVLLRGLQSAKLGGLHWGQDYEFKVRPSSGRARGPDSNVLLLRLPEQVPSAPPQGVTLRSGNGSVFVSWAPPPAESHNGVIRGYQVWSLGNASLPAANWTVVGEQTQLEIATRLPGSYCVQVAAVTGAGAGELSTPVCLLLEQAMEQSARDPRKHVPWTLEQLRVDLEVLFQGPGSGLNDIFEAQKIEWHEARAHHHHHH

B1: 7G2 Fab (phage display clone, bacterially expressed) (Fab, V domains shown)
VH: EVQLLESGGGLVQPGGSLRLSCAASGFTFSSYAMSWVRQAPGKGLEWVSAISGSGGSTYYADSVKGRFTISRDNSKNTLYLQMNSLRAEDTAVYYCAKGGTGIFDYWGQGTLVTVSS
VL: EIVLTQSPGTLSLSPGERATLSCRASQSVSSSYLAWYQQKPGQAPRLLIYGASSRATGIPDRFSGSGSGTDFTLTISRLEPEDFAVYYCQQGQLPPRTFGQGTKVEIK
notes: also called clone 7G2
With B1 the Kd [1] was 14.9 nM, the Kd [2] was 20.5 nM and the binding result [3] was “no binding”.
